Assay: AC-SINS self-interaction

Protein	AC-SINS (wavelength of maximum absorbance relative to blank, nm)
optimized anti-E-selectin antibody 1282 (protein) chain 1: EVQLVESGGGLVQPGGSLRLSCAASGYAIRSAYMHWVRQAPGKGLEWVARIDPANGNTIYVDSVEGRFTISADNAKNSAYLQMNSLRAEDTAVYYCAMDLYSTSEYWGQGTLVTVSSASTKGPSVFPLAPSSKSTSGGTAALGCLVKDYFPEPVTVSWNSGALTSGVHTFPAVLQSSGLYSLSSVVTVPSSSLGTQTYICNVNHKPSNTKVDKKVEPKSCDKTHTCPPCPAPEAAGAPSVFLFPPKPKDTLMISRTPEVTCVVVDVSHEDPEVKFNWYVDGVEVHNAKTKPREEQYNSTYRVVSVLTVLHQDWLNGKEYKCKVSNKALPAPIEKTISKAKGQPREPQVYTLPPSREEMTKNQVSLTCLVKGFYPSDIAVEWESNGQPENNYKTTPPVLDSDGSFFLYSKLTVDKSRWQQGNVFSCSVMHEALHNHYTQKSLSLSPG chain 2: DIQMTQSPSSLSASVGDRVTITCKTSQNIERYLNWYQQKPGKAPKLLIYAASSLQSGVPSRFSGSGSGTDFTLTISSLQPEDFATYFCLQDNAWPLTFGQGTKVEIKRTVAAPSVFIFPPSDEQLKSGTASVVCLLNNFYPREAKVQWKVDNALQSGNSQESVTEQDSKDSTYSLSSTLTLSKADYEKHKVYACEVTHQGLSSPVTKSFNRGEC	1 nm
optimized anti-E-selectin antibody 1448 (protein) chain 1: EVQLVESGGGLVQPGGSLRLSCAASGYAIRSAYMHWVRQAPGKGLEWVARIDPANGNTIYVDSVKERFTISADNAKNSAYLQMNSLRAEDTAVYYCAMDLYSTSEYWGQGTLVTVSSASTKGPSVFPLAPSSKSTSGGTAALGCLVKDYFPEPVTVSWNSGALTSGVHTFPAVLQSSGLYSLSSVVTVPSSSLGTQTYICNVNHKPSNTKVDKKVEPKSCDKTHTCPPCPAPEAAGAPSVFLFPPKPKDTLMISRTPEVTCVVVDVSHEDPEVKFNWYVDGVEVHNAKTKPREEQYNSTYRVVSVLTVLHQDWLNGKEYKCKVSNKALPAPIEKTISKAKGQPREPQVYTLPPSREEMTKNQVSLTCLVKGFYPSDIAVEWESNGQPENNYKTTPPVLDSDGSFFLYSKLTVDKSRWQQGNVFSCSVMHEALHNHYTQKSLSLSPG chain 2: DIQMTQSPSSLSASVGDRVTITCKTSQNIERYLNWYQQKPGKAPKLLIYAASSLQSGVPSRFSGSGSGTDFTLTISSLQPEDFATYFCLQDNAWPLTFGQGTKVEIKRTVAAPSVFIFPPSDEQLKSGTASVVCLLNNFYPREAKVQWKVDNALQSGNSQESVTEQDSKDSTYSLSSTLTLSKADYEKHKVYACEVTHQGLSSPVTKSFNRGEC	1 nm
optimized anti-E-selectin antibody 1284 (protein) chain 1: EVQLVESGGGLVQPGGSLRLSCAASGYAIRSAYMHWVRQAPGKGLEWVARIDPANGNTIYVESVEGRFTISADNAKNSAYLQMNSLRAEDTAVYYCAMDLYSTSEYWGQGTLVTVSSASTKGPSVFPLAPSSKSTSGGTAALGCLVKDYFPEPVTVSWNSGALTSGVHTFPAVLQSSGLYSLSSVVTVPSSSLGTQTYICNVNHKPSNTKVDKKVEPKSCDKTHTCPPCPAPEAAGAPSVFLFPPKPKDTLMISRTPEVTCVVVDVSHEDPEVKFNWYVDGVEVHNAKTKPREEQYNSTYRVVSVLTVLHQDWLNGKEYKCKVSNKALPAPIEKTISKAKGQPREPQVYTLPPSREEMTKNQVSLTCLVKGFYPSDIAVEWESNGQPENNYKTTPPVLDSDGSFFLYSKLTVDKSRWQQGNVFSCSVMHEALHNHYTQKSLSLSPG chain 2: DIQMTQSPSSLSASVGDRVTITCKTSQNIERYLNWYQQKPGKAPKLLIYAASSLQSGVPSRFSGSGSGTDFTLTISSLQPEDFATYFCLQDNAWPLTFGQGTKVEIKRTVAAPSVFIFPPSDEQLKSGTASVVCLLNNFYPREAKVQWKVDNALQSGNSQESVTEQDSKDSTYSLSSTLTLSKADYEKHKVYACEVTHQGLSSPVTKSFNRGEC	1 nm
optimized anti-E-selectin antibody 1444 (protein) chain 1: EVQLVESGGGLVQPGGSLRLSCAASGYAIRSAYMHWVRQAPGKGLEWVARIDPANGNTIYVDSVTGRFTISADNAKNSAYLQMNSLRAEDTAVYYCAMDLYSTSEYWGQGTLVTVSSASTKGPSVFPLAPSSKSTSGGTAALGCLVKDYFPEPVTVSWNSGALTSGVHTFPAVLQSSGLYSLSSVVTVPSSSLGTQTYICNVNHKPSNTKVDKKVEPKSCDKTHTCPPCPAPEAAGAPSVFLFPPKPKDTLMISRTPEVTCVVVDVSHEDPEVKFNWYVDGVEVHNAKTKPREEQYNSTYRVVSVLTVLHQDWLNGKEYKCKVSNKALPAPIEKTISKAKGQPREPQVYTLPPSREEMTKNQVSLTCLVKGFYPSDIAVEWESNGQPENNYKTTPPVLDSDGSFFLYSKLTVDKSRWQQGNVFSCSVMHEALHNHYTQKSLSLSPG chain 2: DIQMTQSPSSLSASVGDRVTITCKTSQNIERYLNWYQQKPGKAPKLLIYAASSLQSGVPSRFSGSGSGTDFTLTISSLQPEDFATYFCLQDNAWPLTFGQGTKVEIKRTVAAPSVFIFPPSDEQLKSGTASVVCLLNNFYPREAKVQWKVDNALQSGNSQESVTEQDSKDSTYSLSSTLTLSKADYEKHKVYACEVTHQGLSSPVTKSFNRGEC	1 nm
